Measured values published in the supplement of paper PMC12042874.
± gives the uncertainty stated by the source.

assay: amyloid nucleation score (Sup35N fusion, yeast selection) (log enrichment); library NNK2; higher = more nucleation; inactive = no reads after selection
Procedure, shortened: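 After 24 hours of induction with 100 μM copper sulfate, psi-negative yeast expressing peptides of 20 random codons fused to Sup35N were grown for 7 days at 30°C on medium lacking adenine and uracil. Input and output plasmid inserts were sequenced with Illumina, and sequences with under 100 input reads were discarded. Scores for nucleation are the DiMSum log enrichment of output over input reads, centred on the mode score of non-aggregating sequences.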

| Substance | amyloid nucleation score |
| --- | --- |
| PVCWAAFRYTYKARMKRWSK | 5.06 ± 0.055 |
| PVFCTLYHAAWSHRIRISVF | -1.57 ± 0.54 |
| PVFRFTSGPLDKNCVYRVN | 0.564 ± 0.57 |
| PVGEEVADVMLTFYKHHLVD | -0.913 ± 1.1 |
| PVIFGTR | 0.192 ± 1 |
| PVLDGHCSWGGLSTAEETDR | 0.29 ± 0.29 |
| PVWGSTCWFDVTWVRFKLFW | 2.61 ± 0.11 |
| PWCGRSMYSVSGKGQMWMRA | 1.03 ± 0.4 |
| PWFKTFWSNMWAVTGW | -0.436 ± 1.1 |
| PWHTSFALERKDMGHK | -0.094 ± 0.36 |
| PWRRISMVVSWQYIEFIKYL | -0.832 ± 0.78 |
| PWVSILLVPMYQRHLTPHPE | -0.121 ± 1.1 |
| PYLFMESMKD | 0.117 ± 0.79 |
| PYRPHYAAVLRLAR | 0.08 ± 0.33 |
| PYSTTNGHSGVWLRWLKGPC | 0.569 ± 0.27 |
| PYWYYVFCS | -0.689 ± 0.49 |
| PYYTIVMFAFYGLLTVRMGI | 0.706 ± 0.4 |
| QAHATFSILRTISAVFSPMQ | 5.973 ± 0.057 |
| QAISVEVVGYRSNLESFTIW | 1.71 ± 0.11 |
| QAWYRLVCIASYLFYEGFNV | 0.193 ± 0.13 |
| QCLIDWSFTFLLNVVLDYFY | inactive |
| QCWLGTGFLRVLACAVAFLY | inactive |
| QDCKAISSCLFRLLPELSLR | -0.92 ± 1.1 |
| QDDGM | -0.826 ± 0.41 |
| QDNFQFFAVSMRGCDCTGVS | 6.96 ± 0.048 |

| Substance | amyloid nucleation score |
| --- | --- |
| QDPFQIRLLVVLNFDNLYLW | 2.08 ± 0.1 |
| QEAALG | 1.27 ± 0.35 |
| QFCSDCV | -0.9 ± 0.76 |
| QFRAWWFTSVDRTPSDNHTV | 4.99 ± 0.059 |
| QFVGFVRWFVWEWGLLVID | 0.706 ± 0.81 |
| QFVSDALVWGGITSMGWLMR | 0.756 ± 0.4 |
| QGAVLTL | -1.12 ± 0.76 |
| QGLMIVINGSSYYVYVCLKG | 1.09 ± 0.12 |
| QGSNCLHYRLSIIS | -1.05 ± 1.1 |
| QHFDLVATGMGYSWAMLYFA | 0.776 ± 0.43 |
| QHSLAMSSHKLSTTVEESWP | 0.818 ± 0.45 |
| QIIRPCVRRDKTGFIALVMG | 1.27 ± 0.49 |
| QILSRGFAPWT | -1.54 ± 0.78 |
| QIPVELNNVLNLYLVLCRIE | -0.459 ± 1.1 |
| QIQVYMNALLTRLSSIILIF | -0.93 ± 0.55 |
| QIVIWVRLYFNVFSRSRSRV | 1.05 ± 0.36 |
| QKMLLKIWIVDRNTYSAVLN | -0.425 ± 0.74 |
| QKMRFYWLVMMAV | -0.283 ± 1 |
| QKTWEIANCFAELEKKIRQG | 2.4 ± 0.069 |
| QLENMCFFSPLQTYMLDRNW | -1.47 ± 0.41 |
| QLESKRWWDIGWCSYLAGGW | 4.92 ± 0.068 |
| QLNIHLMNLRI | 9.23 ± 0.056 |
| QLNVIDIYTSGWISFP | -1.06 ± 0.26 |
| QLPSR | -0.243 ± 0.31 |
| QLRRFERMLSLVM | 1.31 ± 0.3 |

| Substance | amyloid nucleation score |
| --- | --- |
| QLVMCGHEDQYIRSDRSERN | -0.112 ± 0.25 |
| QLVPRHNGTAKGCSGPLTRV | 0.402 ± 0.26 |
| QLVYCVNFVFFARVTNRSAR | 3.95 ± 0.06 |
| QMETSFL | -1.58 ± 1.1 |
| QMICFHSWLGGSSLTVFHHC | 3.84 ± 0.12 |
| QMQYFKATYSI | -0.613 ± 0.44 |
| QNACH | -0.011 ± 1.1 |
| QNECKIMTLIFCLLRSKQYY | 0.005 ± 0.65 |
| QNEVSLEVVFVKEGVGFDRL | -0.665 ± 0.76 |
| QNTMALKHNICPEHSSMWNS | 2.64 ± 0.066 |
| QPCLHAMV | 0.319 ± 0.56 |
| QPGSGFSVAPVQVKHNTVCR | 0.397 ± 0.33 |
| QPPMRVYSLVMLCDAVSSKD | 0.339 ± 0.56 |
| QPSFPTHCQDRFVEECINEV | inactive |
| QRADQWVSRKLRPSIARL | 1.52 ± 0.34 |
| QRCRFPYDTGSSTHSWTEVG | 0.614 ± 0.35 |
| QRVMHTYYVS | 0.073 ± 0.24 |
| QSCWIFSGHSE | -1.03 ± 0.44 |
| QSKMH | -0.321 ± 0.19 |
| QSMSNACFVMGTRCITKRAA | 4.633 ± 0.044 |
| QSPNHVHSLRPGLDQLSALP | -0.08 ± 0.39 |
| QSRSMNRHNWHTFMLWAWER | -0.695 ± 0.61 |
| QSVGATNLLG | 0.501 ± 0.34 |
| QSWSRQSATGPWTLVCQRRP | 0.69 ± 0.51 |
| QVLCIVLDTSMIGTKACLGV | 0.325 ± 0.57 |

| Substance | amyloid nucleation score |
| --- | --- |
| QVLTMNRLWVVPPAHYCVVG | 0.84 ± 0.53 |
| QVTSNRSTGRRYILNQMC | -0.337 ± 1.1 |
| QYQKIIWISCSIPMQMTISA | -0.097 ± 1.1 |
| QYWTNRCKDWERVSRKPLKL | inactive |
| QYYELWSFTDWVWDLWGVQS | -0.568 ± 0.63 |
| RADGSFMKLLA | -0.628 ± 0.5 |
| RAEVNA | 0.517 ± 0.26 |
| RAGFSSAPLVEGRSLTQRCR | inactive |
| RCELSRRGTSLRTWRWARNG | 1.46 ± 0.17 |
| RCFIHRGGLLVVLV | -0.98 ± 0.54 |
| RCFNLWSNSVLFNCSVCSAE | 7.414 ± 0.065 |
| RCGSDLCDTFWVTLRGYGEV | 0.595 ± 0.43 |
| RCKWVRGVSRMPNHWN | 0.779 ± 0.4 |
| RCLPISTIVF | 2.43 ± 0.16 |
| RCLSYFGLKLLRVSRLFIDL | 0.034 ± 0.28 |
| RCRHLLSMPLPVSFEMDGRG | 2.85 ± 0.099 |
| RCRILA | 2.51 ± 0.1 |
| RCSTGRVFSSLDEVLLSRWG | 4.64 ± 0.048 |
| RCVWINVGCSPILIGYAAHY | 8.728 ± 0.03 |
| RCYINFGIHGLWMLHVCFWG | -0.849 ± 1.1 |
| RDRFS | 0.248 ± 0.61 |
| RDSFRDTAYHELVYFTKNFR | inactive |
| RECFLNPWSVYVRFS | -0.086 ± 0.44 |
| REDNPRADTCMAYGV | 1.14 ± 0.35 |
| REGYNAIMYDV | -1.27 ± 0.62 |

| Substance | amyloid nucleation score |
| --- | --- |
| RELCVFASCAFVGLLVESWK | 6.16 ± 0.078 |
| REVYWLMCTA | 0.747 ± 0.47 |
| REWEVCGDCLVGNNGWFRWV | 0.409 ± 0.47 |
| RFAMFMVVRWGWDHKYEFLR | 0.353 ± 0.33 |
| RFCSMSLSWNYDSC | 5.5 ± 0.079 |
| RFDPNTAWNLTFSSSRCVAG | 0.91 ± 0.27 |
| RFEMRSGLKDKLDKVGS | inactive |
| RFFCYKSYMLLECLRIVSVC | -0.853 ± 0.78 |
| RFKSNNRPCWHCHPLLGFRT | 1.06 ± 0.43 |
| RFNTCLDS | -0.005 ± 0.29 |
| RFQELMTK | 0.626 ± 0.8 |
| RFRHNKWYCLLRLAG | 0.956 ± 0.33 |
| RFTFFAGAS | 0.367 ± 0.21 |
| RFVKSRRATILSNDG | -0.198 ± 0.39 |
| RFWDQACQAFMSSMVEGPVD | -0.548 ± 1.1 |
| RFWPWLLVRPNFPMLSQ | 0.216 ± 0.37 |
| RFWSMETEHDIIALVFASSV | 0.096 ± 0.49 |
| RFYVGTIFSPYILLSSTECM | 3.82 ± 0.06 |
| RGDHLGCSII | -0.101 ± 0.79 |
| RGDRSWGVRSCSRYDAAIAG | 1.71 ± 0.38 |
| RGFRIVLINRCVILRSV | 0.198 ± 0.26 |
| RGLRDLMCLRPLRLASSQPP | inactive |
| RGMVE | 0.587 ± 0.53 |
| RGRAFGPEIRNKSLGLTYPV | 0.282 ± 0.21 |
| RGRCNVVSSLTFTIRSLWTV | 1.59 ± 0.13 |

| Substance | amyloid nucleation score |
| --- | --- |
| RGSNVGMRDLAYRPHSGQMW | 1.68 ± 0.56 |
| RGSYMVPWHVERIIGNSRVS | -0.899 ± 0.23 |
| RGVLVEFYGAMENISWSTYW | -0.497 ± 0.76 |
| RGVVWRR | 0.23 ± 0.63 |
| RGWCFWASPGRR | 0.2 ± 0.26 |
| RGWRAGMYFACF | 0.656 ± 0.42 |
| RHDLWAPRTERMMVYMCTAA | 0.544 ± 0.26 |
| RHGVVLSNVSKSVVSVPGAK | -0.409 ± 0.76 |
| RHHGVRIYMRNFGNVYVYIR | 3.85 ± 0.11 |
| RHICIFMNRMSYMDLWPALL | inactive |
| RHKMWVFRT | inactive |
| RHMSTVKTLSEGLNLESGLI | -0.519 ± 0.74 |
| RHRRHLNHYAPTSSMIWTYS | 0.258 ± 0.65 |
| RHTFLVSAGYKERMVGMTSG | -1.12 ± 0.63 |
| RIDRFLFASGHEGYAVN | 4.507 ± 0.033 |
| RIENFVWC | -0.688 ± 0.63 |
| RIGSGTGRPWN | -1.02 ± 0.39 |
| RIGTFWRGQDKLDVFKYGVV | -0.236 ± 0.37 |
| RIGVSSFVEEHSRIGLGRAP | 5.57 ± 0.066 |
| RIHYYVVLCLGSRRSTFGLR | -0.171 ± 0.28 |
| RIKYG | 4.05 ± 0.065 |
| RIRSCTLMWT | 0.807 ± 0.22 |
| RITFV | -0.64 ± 0.76 |
| RITIAQHTDSKGDA | -0.01 ± 0.61 |
| RIVFHYVCTVLR | -0.964 ± 0.76 |

| Substance | amyloid nucleation score |
| --- | --- |
| RIYGILVSFYCIVYDGFSGG | 1.9 ± 0.082 |
| RKAFIHVDKRLDSSIGTRSG | 0.321 ± 0.41 |
| RKCSSVLRGHTVQDVHFFSA | -0.056 ± 0.56 |
| RKGCWSL | 1.65 ± 0.34 |
| RKRRLMYLSGDNTQPFARLY | -0.686 ± 1.1 |
| RKSVWYCDIFIIEYPDFSYS | 2.07 ± 0.1 |
| RKVSSARNSVIATSMSNNSV | -1.61 ± 0.54 |
| RKVVRLSHFLMCDCSRKPRR | -0.072 ± 0.76 |
| RKYNGCSFQHYGLSVRTRSL | 2.37 ± 0.2 |
| RLCTVRSP | 1.55 ± 0.14 |
| RLDGSG | 0.587 ± 0.2 |
| RLDSMMVAYNAT | 0.724 ± 0.81 |
| RLGEWGFNRLVWFNKEAVCS | 0.495 ± 0.47 |
| RLGPSSWSWHL | 1.52 ± 0.29 |
| RLKVIFRSLFHLLRAVRGSH | -1.36 ± 0.75 |
| RLLAVPLVRFRC | -0.23 ± 0.79 |
| RLLRLDQKQIMVRSSSAVLR | -0.107 ± 0.32 |
| RLLSGCLFGGSRA | -0.623 ± 0.76 |
| RLMDGYSSV | 0.548 ± 0.29 |
| RLNCLSTWIVYCGPGYVSSV | -0.571 ± 0.45 |
| RLPAFSRFG | -0.452 ± 0.37 |
| RLQDNRDVATGH | inactive |
| RLQSSRSGVKAL | 0.208 ± 0.8 |
| RLRDDENIGIFMTF | -1.15 ± 1 |
